Test results: the supplement of paper PMC9170038

Experiments:
MS2 coat protein [1] = assay: apparent KD of MS2 coat protein; higher = weaker reporter binding; settings: Eterna round: R101
Procedure: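 RNA-MaP: designed FMN/MS2 RNA switches (84 nt design region) are transcribed on-chip within common flanks and titrated with SNAP-549-labelled MS2 coat protein (about 1-3000 nM) in 100 mM Tris pH 7.5, 80 mM KCl, 4 mM MgCl2, without or with 200 uM FMN. Median apparent KD per design; activation ratio = KD,OFF / KD,ON.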

MS2 coat protein [2] = assay: apparent KD of MS2 coat protein, switch ON state; designed switch direction (-1 OFF switch, 1 ON switch): 1; higher = weaker reporter binding; settings: FMN input: 0 or 200 uM; Eterna round: R93 (includes R88 designs)
In short: (§1)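 The buffer was 100 mM Tris-HCl pH 7.5 with 80 mM KCl and 4 mM MgCl2, used without or with constant ligand. In it, RNA switches transcribed on-chip from Illumina sequencing clusters were titrated with SNAP-549-labelled MS2 coat protein in twofold steps from 0.7 or 1.5 nM to 3 µM. Apparent KD for each design is the median of its normalised cluster binding-curve fits.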

MS2 coat protein [3] = assay: apparent KD of MS2 coat protein, switch OFF state (with FMN for OFF switches, without FMN for ON switches); designed switch direction (-1 OFF switch, 1 ON switch): 1; higher = weaker reporter binding; settings: FMN input: 0 or 200 uM; Eterna round: R93 (includes R88 designs)
In short: as §1

Sequence	apparent KD of MS2 coat protein (MS2 coat protein [1]; input ligand: FMN 200 uM)	apparent KD of MS2 coat protein (MS2 coat protein [1]; input ligand: none)	apparent KD of MS2 coat protein (MS2 coat protein [2])	apparent KD of MS2 coat protein (MS2 coat protein [3])
AAAUAAACUCAAGGAUAUCAGUGGCAAAGCCACUGAGAAGGUGAGGAUCACCCACCUAAGAUCACAGGUGACGAAAGUCACCUG [#SharedSequence ExNG1 - 37] (puzzle (switch architecture): Exclusion NG 1)	0.0176 µM	0.0112 µM	–	–
AAAUAAAUUGAAGGAUAUGACCCUCGAGGUGACUAAAAGUCACCUCGAGGGUCAGAAGGUCGAGGAUCACCCGAUCUAAAUAAA [#SharedSequence SLExNG1: 1-1] (puzzle (switch architecture): Small Loop Exclusion NG 1)	0.0131 µM	0.00827 µM	–	–
UGCUAACUGUAGAAGGGUGACAUGAGGAUCACCCAUGUGCACGCGCGCUUUACGGCGCGCGUGCCACAGGAUAUACAGUUGAGU [Erora] (puzzle (switch architecture): Inverted Same State NG 2)	0.0551 µM	0.0431 µM	–	–
GGAGGAGGAUAAGGAUAUAACAUGAGGAUCACCCAUGUGGAGGAGGAGGAGGAGGAGGAGGAGGGUUAGAAGGUAUGGAGGAGG [First attempt] (puzzle (switch architecture): Exclusion NG 2)	0.011 µM	0.0163 µM	–	–
AAGUGAAAUCAGAAGGGCUCCAGCAAAGCUGGAGCAGGAUAUGAGGAUCACCCAUAUCACCUGACGGUCGAAACGACCGUCAGG [#SharedSequence - IExNG1: 5-1] (puzzle (switch architecture): Inverted Exclusion NG 1)	0.147 µM	0.0212 µM	–	–
AGACAUAACAGAGAGGAUAUCCAAUAGAAAACAUGAGGAUCACCCAUGUGAAAGAUAAUAAAAUGGGAGAAGGCUCACAUACAGA [Topaz 40]	–	–	0.0195 µM	0.0304 µM
CGGAGACAUGAGGAUCACCCAUGUGAGAAGAGGCGAGGAUAUCGAAAGAAAGAAGAGAAACGAGAAGGCGCGAGAA [salish99-SS1-065]	–	–	0.0204 µM	0.0328 µM
UUCUCCACUAGCAAGGAUAUCUAAAACUAAACAUGAGGAUCACCCAUGUGACGACCACACGUAUCAGAGAAGGUGCAGGGUGUAU [JR_SS002_Sub308]	–	–	0.0454 µM	0.0425 µM
UAAGACGUGCAUCAGGAUAUGUUCCGAGGCACAUGAGGAUCACCCAUGUGGACGAAGCCUCGGGCACAGAAGGGAUCACUCAGAC [Laarma]	–	–	0.0172 µM	0.0204 µM
AAAAGACAUGAGGAUCACCCAUGUAAAAACGUAGGAGGAUAUGUCUUGAAAAAAGACUUGACAGAAGGCCUGUGUC [SS1 - 53]	–	–	0.023 µM	0.0346 µM
AAAUAAAGGACUGAGGAUAUACCACAUGAAACAUGAGGAUCACCCAUGUAGAAAUACAGAGGGUGGUAGAAGGCAGUCCACAAAC [Same State 2.5h ( so lets mod hyphema)]	–	–	0.0301 µM	0.0572 µM
AAAAAAAAAACUCAGGAUAUAGAUUGUUGAACAUGAGGAUCACCCAUGUAGUGAAAAGCGAAAAACUAGAAGGGAGGAAAAAAAAA [SameState2-03]	–	–	0.0305 µM	0.0633 µM
AAGAAACAUGAGGAUCACCCAUGUGAGAAAAACACAGGAUAUGCAAAAGAAAGAAAGAAAGCAGAAGGGUGAAGAA [Mat - Same State 1 - Tesla mod - 52]	–	–	0.0225 µM	0.074 µM
CGGAGACAUGAGGAUCACCCAUGUGAGAAGAGGCGAGGAUAUCGAAAAAAAAAAAAAAAACGAGAAGGCGCGAGAU [salish99-SS1-013]	–	–	0.034 µM	0.0362 µM
AAUACACAUGGUCAGGAUAUCGCAGCUAGGACAUGAGGAUCACCCAUGUCGCACGUAACCGUAACCGAGAAGGGACAGGGUGAUC [JR_SS002_Sub410]	–	–	0.0218 µM	0.034 µM
AAAAAACAUGAGGAUCACCCAUGUGAGAACAUGGGAGGAUAUACGAAGACGAAAGUCGAAGUAGAAGGCCUAAAAG [Garnet 79]	–	–	0.994 µM	0.0912 µM
CAUCACGCGCCUAAGGAUAUGUCUCACAAGACAUGAGGAUCACCCAUGUAGACUAAAUAAACGAUGCAGAAGGUGGAGCGCAUGC [Usrexe]	–	–	0.0764 µM	0.149 µM
AGCAUGCGAUAUAAGGAUAUGUUGUUUGCAACAUGAGGAUCACCCAUGUUUGAGGCUGAAAAGCAGCAGAAGGUAUAUACAAGCA [SS2-1.0]	–	–	0.00945 µM	0.013 µM
UAAAAUAAAACAUAGGAUAUCAAAAUAAAAACAUGAGGAUCACCCAUGUGAAAACAUGAGAAGGAUGAGAAGGAAAAUAAAAUAA [Meechl SS2 R2 m1]	–	–	0.0257 µM	0.0516 µM
GAAAAACAUGAGGAUCACCCAUGUGUAAAUAUGGGAGGAUAUACAAAGACGGAAGUCAAAGUAGAAGGCCUAAAAG [Mat - Same State 1 - Eli mod - D11]	–	–	0.0943 µM	0.111 µM

Sequence	apparent KD of MS2 coat protein (MS2 coat protein [1]; input ligand: FMN 200 uM)	apparent KD of MS2 coat protein (MS2 coat protein [1]; input ligand: none)	apparent KD of MS2 coat protein (MS2 coat protein [2])	apparent KD of MS2 coat protein (MS2 coat protein [3])
UGGAGACAUGAGGAUCACCCAUGUGAGAAGAGGCGAGGAUAUCGAAAGAAAGAAGAGAAACGAGAAGGCGCGAGCA [salish99-SS1-040]	–	–	0.0259 µM	0.0402 µM
AAGAAACAUGAGGAUCACCCAUGUAAGAAUAUGGGAGGAUAUGCGAAAAGAAACAAAGAAGCAGAAGGCCUAAGAA [75%, Ex5 sub 1, 5]	–	–	0.0266 µM	0.0576 µM
AUAAAAUAAAGUGAGGAUAUCUAUAAUAAAACAUGAGGAUCACCCAUGUUAAAAAAAAGAUCAUGGGAGAAGGCAUAAAAUAAAU [SS2 M 31]	–	–	0.00751 µM	0.0217 µM
GCCUAACAUGAGGAUCACCCAUGUAGUGGGUUGUUAGGAUAUGGACCACAAAACGCGGUACCAGAAGGAAUAGAAA [Atbima]	–	–	0.393 µM	0.538 µM
AGAGUAAACAGAGAGGAUAUCCAAUAGAAAACAUGAGGAUCACCCAUGUGAAAGAUAAUAAAAUGGGAGAAGGCUCACAAUAAGA [Topaz 43]	–	–	0.0246 µM	0.0494 µM
UAACAACAUGAGGAUCACCCAUGUCAAACAAAUCGAGGAUAUGGGCAGGAUUCUUCCUAUCUAGAAGGCGAAAACA [Ricexebi]	–	–	0.145 µM	0.0832 µM
AAUACACAUGGUCAGGAUAUCGCAGCUAGGACAUGAGGAUCACCCAUGUCGCAUGUAACUGUAACCGAGAAGGGACAGGGUGAUC [JR_SS002_Sub411]	–	–	0.123 µM	0.0926 µM
GCCUAACAUGAGGAUCACCCAUGUAGUGGGUUGUUAGGAUAUGGACCGCAAAACACGGUACCAGAAGGAAUAGAAA [Tiquleraat]	–	–	0.448 µM	0.72 µM
AGGAAACAUGAGGAUCACCCAUGUAAAAAUAUGGGAGGAUAUACAAAGACGAAAGUCAAAGUAGAAGGCCUAAAAG [77%, Mat - Mod of Eli, 4]	–	–	0.0214 µM	0.0601 µM
GGGAGACAUGAGGAUCACCCAUGUGAGAAGAGGCGAGGAUAUCGAAAGAAAGAAGAGAAACGAGAAGGCGCGAGAA [salish99-SS1-049]	–	–	0.037 µM	0.0644 µM
AGGAAACAUGAGGAUCACCCAUGUAAAAAAUAGGGAGGAUAUACUAGAAGAAACAAAAUAGUAGAAGGUCCAAAAA [75%, Ex sub1, 24]	–	–	0.0184 µM	0.0276 µM
GAGGACAUAGGAUAGGAUAUAUGAAUAAUUACAUGAGGAUCACCCAUGUCCAUUUAUAUGGGAACAUAGAAGGGUUGUAGUUAUC [SameState2 Malc#34]	–	–	1.07 µM	0.683 µM
GGAGCCGGUACUGAGGAUAUUCAUAUUAAAACAUGAGGAUCACCCAUGUAGGCCAGAAGGCCUUGGGAGAAGGCAGAUCGGCUCC [Biceusra]	–	–	0.0204 µM	0.266 µM
GACAAACAUGAGGAUCACCCAUGUAGACAUAUGGGAGGAUAUACACAGACGAAAGUCAAAGUAGAAGGCCUACAAG [77%, Mat - Mod of Eli - With 4 more C's]	–	–	0.0293 µM	0.0913 µM
AAAAAACAUGAGGAUCACCCAUGUCGAAAGACGUGAGGAUAUGUACAGACUUCGGUCUGUACAGAAGGCACGUCAA [SS1 - 1044]	–	–	0.0173 µM	0.0248 µM
CGCGAACAUGAGGAUCACCCAUGUAAAUCGCAUGUAGGAUAUGGGAUACACAUUAAGAUCCCAGAAGGGCGGAAAA [Leeroner]	–	–	0.0238 µM	0.0235 µM
AAAGACACAGUGCAGGAUAUAGUAAUAGUCACAUGAGGAUCACCCAUGUUCUUUUAUAAGAACGAUUAGAAGGGCGGUGAAAAAA [SameState2 Malc#11]	–	–	0.161 µM	0.383 µM
GAAAAACAUGAGGAUCACCCAUGUAAGAUAAACACAGGAUAUGCGAAAAUAAAUAAAUAAGCAGAAGGGUGAAAAG [Mat - Same State 1 - Tesla mod - 78]	–	–	0.0257 µM	0.0374 µM
CAGGACGUAGGAUAGGAUAUAUGAAUAAUUACAUGAGGAUCACCCAUGUCCAUUUAUAUGGGAACAUAGAAGGGUUGUGGUUAUG [Mat - Same state - Malcolm Mod - D144]	–	–	0.68 µM	0.315 µM
GGGAGACAUGAGGAUCACCCAUGUGAGAAGAGGCGAGGAUAUCGAAAGAAAGAAGAGAAACGAGAAGGCGCGAGAU [salish99-SS1-053]	–	–	0.0303 µM	0.067 µM
